Laboratory results taken from CN101386648A (MICROORGANISM EPIDEMIC INST OF, dated 2009).
Positions count from the first letter of the chain named.

T1: B型肉毒神经毒素 (botulinum neurotoxin type B) (Clostridium botulinum, UniProt P10844 2-1291)
T1 sequence: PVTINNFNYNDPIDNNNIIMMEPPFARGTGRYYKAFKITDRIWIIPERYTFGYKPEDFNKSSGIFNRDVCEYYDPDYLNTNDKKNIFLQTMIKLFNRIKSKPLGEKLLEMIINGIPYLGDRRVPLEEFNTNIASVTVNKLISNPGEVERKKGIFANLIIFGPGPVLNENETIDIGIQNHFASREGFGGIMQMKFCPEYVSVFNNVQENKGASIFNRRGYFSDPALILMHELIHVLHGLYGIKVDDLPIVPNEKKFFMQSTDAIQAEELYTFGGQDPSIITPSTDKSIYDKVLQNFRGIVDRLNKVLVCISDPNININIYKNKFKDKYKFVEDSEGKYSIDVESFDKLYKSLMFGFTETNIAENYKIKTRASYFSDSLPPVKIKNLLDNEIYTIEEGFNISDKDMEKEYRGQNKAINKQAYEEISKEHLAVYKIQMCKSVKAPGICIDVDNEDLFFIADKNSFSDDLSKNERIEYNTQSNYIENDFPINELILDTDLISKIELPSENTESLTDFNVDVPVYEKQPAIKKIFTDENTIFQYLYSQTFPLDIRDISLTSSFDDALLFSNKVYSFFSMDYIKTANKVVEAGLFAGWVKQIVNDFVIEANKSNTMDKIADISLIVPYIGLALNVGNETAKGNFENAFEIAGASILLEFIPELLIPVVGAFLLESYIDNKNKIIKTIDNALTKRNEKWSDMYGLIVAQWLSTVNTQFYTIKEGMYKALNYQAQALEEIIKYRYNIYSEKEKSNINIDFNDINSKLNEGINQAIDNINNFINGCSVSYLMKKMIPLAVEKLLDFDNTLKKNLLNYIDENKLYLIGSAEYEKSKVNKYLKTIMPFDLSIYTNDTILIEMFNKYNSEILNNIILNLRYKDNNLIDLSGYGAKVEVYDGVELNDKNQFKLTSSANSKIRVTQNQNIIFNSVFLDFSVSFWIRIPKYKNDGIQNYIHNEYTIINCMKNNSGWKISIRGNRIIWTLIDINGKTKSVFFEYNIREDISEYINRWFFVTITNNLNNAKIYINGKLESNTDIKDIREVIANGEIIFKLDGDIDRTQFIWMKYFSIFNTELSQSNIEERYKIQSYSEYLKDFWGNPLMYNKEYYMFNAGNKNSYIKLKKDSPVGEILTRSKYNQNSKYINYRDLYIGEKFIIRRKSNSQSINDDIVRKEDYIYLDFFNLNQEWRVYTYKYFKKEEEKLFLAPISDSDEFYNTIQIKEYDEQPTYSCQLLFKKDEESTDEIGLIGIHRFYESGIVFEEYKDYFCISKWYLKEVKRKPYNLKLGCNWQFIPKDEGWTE

T2: E型肉毒神经毒素 (botulinum neurotoxin type E) (Clostridium botulinum, UniProt Q00496 2-1251)
T2 sequence: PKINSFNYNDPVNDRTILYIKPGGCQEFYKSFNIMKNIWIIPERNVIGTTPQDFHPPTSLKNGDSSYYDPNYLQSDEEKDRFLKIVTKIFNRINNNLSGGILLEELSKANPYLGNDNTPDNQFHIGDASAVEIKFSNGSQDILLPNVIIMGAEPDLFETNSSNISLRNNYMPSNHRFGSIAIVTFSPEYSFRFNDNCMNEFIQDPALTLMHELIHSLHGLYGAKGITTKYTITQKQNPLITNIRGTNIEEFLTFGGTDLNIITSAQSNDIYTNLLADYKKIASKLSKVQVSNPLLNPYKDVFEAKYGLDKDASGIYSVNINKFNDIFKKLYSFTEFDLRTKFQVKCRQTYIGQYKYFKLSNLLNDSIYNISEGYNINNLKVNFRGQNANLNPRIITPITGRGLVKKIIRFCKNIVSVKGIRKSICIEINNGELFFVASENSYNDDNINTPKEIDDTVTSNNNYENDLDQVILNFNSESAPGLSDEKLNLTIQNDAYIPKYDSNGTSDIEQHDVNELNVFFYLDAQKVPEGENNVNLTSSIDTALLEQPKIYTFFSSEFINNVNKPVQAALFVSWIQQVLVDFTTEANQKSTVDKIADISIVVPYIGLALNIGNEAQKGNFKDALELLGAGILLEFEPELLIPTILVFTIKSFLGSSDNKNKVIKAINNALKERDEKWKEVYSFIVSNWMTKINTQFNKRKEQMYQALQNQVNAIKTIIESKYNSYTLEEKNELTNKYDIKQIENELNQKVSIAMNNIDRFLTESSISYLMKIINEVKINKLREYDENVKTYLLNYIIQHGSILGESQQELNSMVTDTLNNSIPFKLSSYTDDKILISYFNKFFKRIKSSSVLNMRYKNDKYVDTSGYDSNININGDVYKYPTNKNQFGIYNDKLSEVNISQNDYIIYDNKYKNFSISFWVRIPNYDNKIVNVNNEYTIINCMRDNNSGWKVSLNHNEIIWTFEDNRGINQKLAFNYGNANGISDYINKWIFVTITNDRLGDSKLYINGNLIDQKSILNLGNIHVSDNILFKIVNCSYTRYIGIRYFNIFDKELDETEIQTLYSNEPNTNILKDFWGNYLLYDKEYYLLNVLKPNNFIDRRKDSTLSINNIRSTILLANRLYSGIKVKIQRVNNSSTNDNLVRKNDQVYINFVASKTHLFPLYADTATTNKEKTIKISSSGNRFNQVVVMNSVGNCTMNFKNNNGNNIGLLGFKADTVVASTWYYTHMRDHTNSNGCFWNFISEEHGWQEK

T3: F型肉毒神经毒素 (botulinum neurotoxin type F) (Clostridium botulinum, UniProt P30996 1-1274)
T3 sequence: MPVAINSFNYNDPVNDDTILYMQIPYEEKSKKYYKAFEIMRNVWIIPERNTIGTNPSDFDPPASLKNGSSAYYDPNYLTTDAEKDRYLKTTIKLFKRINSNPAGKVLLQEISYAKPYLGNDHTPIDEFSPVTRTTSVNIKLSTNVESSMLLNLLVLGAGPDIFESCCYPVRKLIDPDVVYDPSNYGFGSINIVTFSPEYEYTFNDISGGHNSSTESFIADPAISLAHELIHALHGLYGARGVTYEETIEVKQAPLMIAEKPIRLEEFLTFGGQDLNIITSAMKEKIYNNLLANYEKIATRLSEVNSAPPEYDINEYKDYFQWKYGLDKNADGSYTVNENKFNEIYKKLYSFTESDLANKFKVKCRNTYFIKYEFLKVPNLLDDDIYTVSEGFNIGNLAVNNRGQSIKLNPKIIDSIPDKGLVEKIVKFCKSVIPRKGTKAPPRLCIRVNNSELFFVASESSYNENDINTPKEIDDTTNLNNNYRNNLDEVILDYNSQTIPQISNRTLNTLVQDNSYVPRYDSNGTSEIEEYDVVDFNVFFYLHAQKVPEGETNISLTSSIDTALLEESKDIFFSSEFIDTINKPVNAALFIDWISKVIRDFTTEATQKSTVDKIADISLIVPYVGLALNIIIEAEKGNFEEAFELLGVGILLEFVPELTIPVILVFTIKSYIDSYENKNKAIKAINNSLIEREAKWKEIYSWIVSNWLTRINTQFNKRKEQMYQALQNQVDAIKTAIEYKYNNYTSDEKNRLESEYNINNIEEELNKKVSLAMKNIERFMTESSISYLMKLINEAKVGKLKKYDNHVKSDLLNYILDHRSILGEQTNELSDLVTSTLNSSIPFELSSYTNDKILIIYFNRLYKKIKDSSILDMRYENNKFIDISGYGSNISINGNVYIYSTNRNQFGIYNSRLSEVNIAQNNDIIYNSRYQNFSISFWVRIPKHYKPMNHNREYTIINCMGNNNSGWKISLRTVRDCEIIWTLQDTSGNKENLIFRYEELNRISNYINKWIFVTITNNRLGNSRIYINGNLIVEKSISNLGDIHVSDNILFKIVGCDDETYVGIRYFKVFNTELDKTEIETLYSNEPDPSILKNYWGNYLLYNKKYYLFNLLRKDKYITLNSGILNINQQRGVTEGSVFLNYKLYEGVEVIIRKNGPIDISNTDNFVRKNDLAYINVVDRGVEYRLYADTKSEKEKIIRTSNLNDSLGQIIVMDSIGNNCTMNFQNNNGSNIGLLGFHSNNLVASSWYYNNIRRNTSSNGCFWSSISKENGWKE

B1: 人源化抗B型肉毒神经毒素中和性抗体HuBNbP8 (recombinant MBP-scFv fusion protein expressed from pMAL-HuFv) (scFv)
scFv: AQVQLVQSGAEVVKPGASVKLSCKASGYTFTSYYIYWVKQRPGQGLGWIGEIYPSNGGTNFNEKFKTKATLTVDKSASTAYMQLSSLTSEDSTVYYCARMGNYGGSYFDYWGQGTTLTVSSGGGGSGGGGSGGGGSDIVLTQSPATLSVTPGESVSLSCGASQSISNNLHWYQQKSHESPRLLIKFASQSISGIPSKFSGSGSGTDFSLSINSLETEDFGVFFCQQSDTWPYTFGGGTKLEIKRAAAE
B2: 鼠源抗B型肉毒神经毒素中和性抗体MuBNbP8 (recombinant MBP-scFv fusion protein expressed from pMAL-MuFv) (scFv)
scFv: B1 scFv with Q4K, V6Q, V12L, A77S, E153D

Tests used:
[1] = target: T1, B型肉毒神经毒素 (botulinum neurotoxin type B); assay: SPR (Biacore 3000, CM5 chip), […]
[2] = target: T2, E型肉毒神经毒素 (botulinum neurotoxin type E); assay: ELISA
[3] = target: T3, F型肉毒神经毒素 (botulinum neurotoxin type F); assay: ELISA
[4] = target: A型肉毒神经毒素 (botulinum neurotoxin type A) (Clostridium botulinum, UniProt P0DPI0 2-1296); assay: ELISA
Chain of A型肉毒神经毒素 (botulinum neurotoxin type A) (P0DPI0 2-1296 limits assumed): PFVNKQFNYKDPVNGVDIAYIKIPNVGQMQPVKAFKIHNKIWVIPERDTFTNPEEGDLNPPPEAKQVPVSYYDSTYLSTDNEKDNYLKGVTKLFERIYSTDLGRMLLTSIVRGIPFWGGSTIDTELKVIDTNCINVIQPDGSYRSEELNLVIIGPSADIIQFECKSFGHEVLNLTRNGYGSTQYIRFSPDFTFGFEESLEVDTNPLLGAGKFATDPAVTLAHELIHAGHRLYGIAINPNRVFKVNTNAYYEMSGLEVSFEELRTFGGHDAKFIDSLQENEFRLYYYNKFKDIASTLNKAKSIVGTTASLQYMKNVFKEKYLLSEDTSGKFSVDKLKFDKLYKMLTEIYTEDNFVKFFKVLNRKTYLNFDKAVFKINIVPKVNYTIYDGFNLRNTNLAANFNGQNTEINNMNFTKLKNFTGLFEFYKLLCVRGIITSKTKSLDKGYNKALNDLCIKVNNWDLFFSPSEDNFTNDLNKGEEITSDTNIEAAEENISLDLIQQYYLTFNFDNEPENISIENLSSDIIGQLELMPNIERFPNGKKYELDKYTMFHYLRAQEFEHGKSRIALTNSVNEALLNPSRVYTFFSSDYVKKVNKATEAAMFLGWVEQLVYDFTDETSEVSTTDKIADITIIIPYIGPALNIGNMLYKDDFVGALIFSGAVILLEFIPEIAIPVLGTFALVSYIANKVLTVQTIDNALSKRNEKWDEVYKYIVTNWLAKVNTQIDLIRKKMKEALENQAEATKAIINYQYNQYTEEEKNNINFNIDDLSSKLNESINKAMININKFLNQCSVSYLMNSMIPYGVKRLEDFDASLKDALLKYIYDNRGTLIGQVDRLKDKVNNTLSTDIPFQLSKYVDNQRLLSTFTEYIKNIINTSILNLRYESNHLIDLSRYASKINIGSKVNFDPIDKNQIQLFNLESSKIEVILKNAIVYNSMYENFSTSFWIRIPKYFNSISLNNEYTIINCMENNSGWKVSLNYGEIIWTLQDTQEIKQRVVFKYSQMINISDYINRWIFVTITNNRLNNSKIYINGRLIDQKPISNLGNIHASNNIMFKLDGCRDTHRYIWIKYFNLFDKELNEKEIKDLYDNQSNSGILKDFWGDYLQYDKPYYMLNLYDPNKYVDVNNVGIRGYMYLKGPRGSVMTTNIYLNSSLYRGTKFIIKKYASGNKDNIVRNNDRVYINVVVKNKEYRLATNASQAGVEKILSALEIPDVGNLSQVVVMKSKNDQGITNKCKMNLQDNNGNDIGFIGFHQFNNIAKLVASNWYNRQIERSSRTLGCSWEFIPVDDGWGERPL

| Binder | Kd [1] [nM] | binding result [2] | binding result [3] | binding result [4] |
| --- | --- | --- | --- | --- |
| B1 | 1.34 | no binding | no binding | no binding |
| B2 | – | no binding | no binding | no binding |
